{"source": "patent US20190376053A1", "about": "(BOARD OF TRUSTEES OF THE UNIVERSITY OF ARKANSAS, published 2019)", "key": {"[1]": {"target": "rat collagen (collagen type I) (rat, UniProt P02454 152-1207; P02466 86-1125)", "sequence (P02454 152-1207 limits assumed, chain 1 of 2)": "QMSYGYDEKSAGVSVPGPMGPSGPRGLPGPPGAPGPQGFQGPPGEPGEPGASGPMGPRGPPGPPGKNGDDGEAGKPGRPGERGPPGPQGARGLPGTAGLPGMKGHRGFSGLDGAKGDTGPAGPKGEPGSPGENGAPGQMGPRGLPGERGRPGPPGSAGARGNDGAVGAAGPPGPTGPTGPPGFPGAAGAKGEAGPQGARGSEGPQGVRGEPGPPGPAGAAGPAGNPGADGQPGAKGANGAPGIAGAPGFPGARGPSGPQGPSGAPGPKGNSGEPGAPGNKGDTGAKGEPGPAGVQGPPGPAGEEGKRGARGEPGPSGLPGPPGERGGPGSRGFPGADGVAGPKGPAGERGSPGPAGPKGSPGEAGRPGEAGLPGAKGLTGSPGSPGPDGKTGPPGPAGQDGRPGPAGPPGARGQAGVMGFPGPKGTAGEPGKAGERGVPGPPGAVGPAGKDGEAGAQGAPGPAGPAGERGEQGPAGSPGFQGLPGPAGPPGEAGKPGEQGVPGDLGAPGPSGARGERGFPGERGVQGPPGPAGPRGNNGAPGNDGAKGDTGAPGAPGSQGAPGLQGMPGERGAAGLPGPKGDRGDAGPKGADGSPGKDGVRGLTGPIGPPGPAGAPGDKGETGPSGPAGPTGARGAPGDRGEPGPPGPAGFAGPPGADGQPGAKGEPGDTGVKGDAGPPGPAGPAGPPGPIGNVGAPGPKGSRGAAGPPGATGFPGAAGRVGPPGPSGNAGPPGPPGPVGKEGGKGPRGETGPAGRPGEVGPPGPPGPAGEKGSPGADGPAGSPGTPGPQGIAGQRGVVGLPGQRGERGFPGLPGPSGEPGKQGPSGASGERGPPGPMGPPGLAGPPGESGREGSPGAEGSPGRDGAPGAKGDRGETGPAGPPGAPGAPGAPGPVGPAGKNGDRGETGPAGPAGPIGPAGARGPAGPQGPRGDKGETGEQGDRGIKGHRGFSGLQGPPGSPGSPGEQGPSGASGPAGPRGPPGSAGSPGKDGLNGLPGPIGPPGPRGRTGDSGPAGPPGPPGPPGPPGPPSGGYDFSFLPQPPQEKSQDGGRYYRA", "sequence (P02466 86-1125 limits assumed, chain 2 of 2)": "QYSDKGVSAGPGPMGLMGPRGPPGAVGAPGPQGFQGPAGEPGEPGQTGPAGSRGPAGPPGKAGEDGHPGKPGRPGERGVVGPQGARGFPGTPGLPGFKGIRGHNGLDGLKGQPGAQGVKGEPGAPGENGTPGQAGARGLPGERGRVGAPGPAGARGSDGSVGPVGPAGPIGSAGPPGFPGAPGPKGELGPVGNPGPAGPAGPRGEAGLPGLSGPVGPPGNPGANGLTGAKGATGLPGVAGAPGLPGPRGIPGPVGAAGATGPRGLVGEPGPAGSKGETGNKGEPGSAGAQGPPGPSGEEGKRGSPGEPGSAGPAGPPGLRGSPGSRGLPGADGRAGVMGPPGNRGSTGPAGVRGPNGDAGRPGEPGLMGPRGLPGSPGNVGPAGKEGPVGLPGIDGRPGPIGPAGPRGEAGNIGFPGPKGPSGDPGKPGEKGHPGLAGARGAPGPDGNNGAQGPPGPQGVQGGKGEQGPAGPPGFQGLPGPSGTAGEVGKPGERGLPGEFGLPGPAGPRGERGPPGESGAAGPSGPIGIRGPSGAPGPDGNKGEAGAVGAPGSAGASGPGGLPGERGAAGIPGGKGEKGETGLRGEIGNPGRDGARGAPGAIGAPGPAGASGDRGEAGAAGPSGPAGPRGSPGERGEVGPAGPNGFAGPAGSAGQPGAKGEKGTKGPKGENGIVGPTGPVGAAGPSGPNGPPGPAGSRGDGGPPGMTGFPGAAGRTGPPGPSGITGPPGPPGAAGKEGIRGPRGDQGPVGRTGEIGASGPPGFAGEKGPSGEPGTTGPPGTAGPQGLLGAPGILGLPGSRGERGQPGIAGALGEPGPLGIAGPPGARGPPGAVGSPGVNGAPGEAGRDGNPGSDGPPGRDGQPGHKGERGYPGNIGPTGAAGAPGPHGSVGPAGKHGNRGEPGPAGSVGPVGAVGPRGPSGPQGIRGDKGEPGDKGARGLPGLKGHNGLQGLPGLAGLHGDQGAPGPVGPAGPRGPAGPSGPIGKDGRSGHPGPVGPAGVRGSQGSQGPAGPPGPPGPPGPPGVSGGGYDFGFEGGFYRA", "assay": "cell-based or functional assay"}, "[2]": {"target": "T1, collagen fibril (porcine skin fiber, Nippi, Inc) (porcine)", "T1 construct": "also called collagen fiber; insoluble collagen fibril", "assay": "collagen fibril binding assay (spin column, SDS-PAGE of the unbound protein, Scatchard plot)"}}}
{"binder": "tandem collagen-binding domain (s3a-s3b) derived from Clostridium histolyticum class I collagenase ColG (other) PITKEMEPNDDIKEANGPIVEGVTVKGDLNGSDDADTFYFDVKEDGDVTIELPYSGSSNFTWLVYKEGDDQNHIASGIDKNNSKVGTFKSTKGRHYVFIYKHDSASNISYSLNIKGLGNEKLKEKENNDSSDKATVIPNFNTTMQGSLLGDDSRDYYSFEVKEEGEVNIELDKKDEFGVTWTLHPESNINDRITYGQVDGNKVSNKVKLRPGKYYLLVYKYSGSGNYELRVNK", "values": [{"measurement": "collagen fibril thickness against the collagen control, 5:1 ratio", "setting": "[1]", "result": 2, "unit": "% less"}, {"measurement": "fibril growth, absorption, higher ratios of tandem CBD", "setting": "[1]", "result": 0.005}, {"measurement": "fibril growth, absorption, lower ratios of CBD", "setting": "[1]", "result": 0.0217}]}
{"binder": "collagen-binding domain s3b derived from Clostridium histolyticum class I collagenase ColG (other, domain: s3b; also called ColGS3b; CBD (s3b)) GNEKLKEKENNDSSDKATVIPNFNTTMQGSLLGDDSRDYYSFEVKEEGEVNIELDKKDEFGVTWTLHPESNINDRITYGQVDGNKVSNKVKLRPGKYYLLVYKYSGSGNYELRVNK", "values": [{"measurement": "Kd", "setting": "[2]", "result": "~100", "unit": "µM"}]}
